Assay: yeast display, Sf9 membrane polyspecificity reagent, FACS + sequencing; frameworks hold sequencing errors
Summary of the method: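 A nanobody's polyreactivity label depends on the gate it was sorted from. Yeast display cells were stained with 10% biotinylated, detergent-solubilized Sf9 membrane reagent for 1 hour at 4 °C, enriched on streptavidin microbeads and sorted by FACS. The low and high (top ~1%) gates were set on anti-HA fluorescence for expression and streptavidin fluorescence for reagent binding.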

Row | Sequence | polyreactivity (PSR sort gate)
1 | QVQLVESGGGLVQAGGSLRLSCAASGSTFSYYTMGWYRQAPGKERELVAGISYSGGRTYYADSVKGRFTSSRDKAKNTVYLQMNSLKPEDTAVYYCAKVSWRRGAFYYWGQGTQVTVSS | high polyreactivity
2 | QVQLVESGGGLVQAGGSLRLSCAASGSTFSYYTMGWYRQATGKERELVAAISGSGGSTYYADSVKGRFTISRDNAKNTVYLQMKSLKPEDTAVYYCAALRAGSKCFDFWGQGTQVTVSS | high polyreactivity
3 | QVQLVESGGGLVQAGGSLRLSCAASGSTFTAYAMGWYRQATREDRELVARIGGTYYADSVKGRFTISRDNAKNTVYLQMNSLKPEDTAVYYCAAEYGYDFFRSYQEYGYWGQGTQVTVSS | low polyreactivity
4 | QVQLVESGGGLVQAGGSLRLSCAASGSTFTDYAMGWYRQAPGKERELVAAITNSGSSTNYEDSVKGRFTISRDNAKNTVYLQMNSLKPEDTAVYYCNASSYPWEYYYLYYGYDYWVQGTQVTVSS | low polyreactivity
5 | QVQLVESGGGLVQAGGSLRLSCAASGSTFTDYAMGWYRQAPGKERELVASITSGGRTNYADSVKGRFTISRDNAKNTVYLQMNSLKPEDTAVYYCNASAWLVVARTRYGYWGQGTQVTVSS | low polyreactivity
6 | QVQLVESGGGLVQAGGSLRLSCAASGSTFTDYTMGWYRQAPGKERELVARIRSRGARTYYADSVKGRFTISRDNAKNTVYLQMNSLKPEDTAVYYCAAAGVRSYAGDYWGQGTQVTVSS | high polyreactivity
7 | QVQLVESGGGLVQAGGSLRLSCAASGSTFTFNAMVWYRQAPGKERELVAAITTSAGSTYYADSVKGRFTISRDNAKNTVYLQMSSLKPEDTAVYYCAARYVPPWGRRYYYWGQGTQVTVSS | high polyreactivity
8 | QVQLVESGGGLVQAGGSLRLSCAASGSTFTGNAMGWYRQAPGKERELVAAISRSGGRTYYADSVKGRFTISRDNAKNTVYLQMNILKPEDTGVYYCNAVRNRGQRTAFDYWGQGTQVTVSS | high polyreactivity
9 | QVQLVESGGGLVQAGGSLRLSCAASGSTFTGNAMGWYRQAPGKERELVASINGSSGSTYYADSVKGRFTISRDNAKNTVYLQMNSLKPEDTAVYYGAKDSFLHFPRVGWVGLEYWGQGTQVTVSS | low polyreactivity
10 | QVQLVESGGGLVQAGGSLRLSCAASGSTFTGYALGWYRQAPGKERELVAAISSGGSTYYADSVKGRFTISRDNAKNTVYLQMNSLKPEDTAVYYCAAAPRWKASRLYYWGQGTQVTVSS | high polyreactivity
11 | QVQLVESGGGLVQAGGSLRLSCAASGSTFTGYAMGWYRQAPGKERELVAGISVTGGNTYYADSVKGRFTISRDNAKKTVYLQMNSLKPEDTAVYYCNAVVLSYYAGEMDYWGQGTQVTVSS | low polyreactivity
12 | QVQLVESGGGLVQAGGSLRLSCAASGSTFTHYAMGWYRQAPGKERELVAAISSRGGSTYADSVKGRFTISRDNAKNTVYLQMNSLKPEDTAVYYCAARYRLYYYFRFDWGQGTQVTVSS | high polyreactivity
13 | QVQLVESGGGLVQAGGSLRLSCAASGSTFTIYAMGWYRQAPGTERELVATIRAGGGRTSYADSVKGRFTISRDNAKNTVYLQMNSLKPEETAVYYCAVYVRPTRYGYWGQGTQVTVSS | high polyreactivity
14 | QVQLVESGGGLVQAGGSLRLSCAASGSTFTIYAYGWYRQAPGKERELVAAITRGGGRTYYADSVKGRFTISRDNAKNTVFLQMNSLKPEVTAVYYCAAYYAHEFDYRGQGTQVTVSS | high polyreactivity
15 | QVQLVESGGGLVQAGGSLRLSCAASGSTFTKYAMGWYRQAPGQERELVAAITASGGNTYYADSVKGRFTISRDNAKNTVYLQMNSLKPEDTAVYSCAAVTGLFYHPFYKYNYWGQGTQVTVSS | high polyreactivity
16 | QVQLVESGGGLVQAGGSLRLSCAASGSTFTKYDMGWYRQAPGKERELVAAIRSGGDTNYADSVKGRFTISRDNAKNTVYLQMNSLKPEDTAVYYCAATVLGDYEYWGQGTQVTVSS | low polyreactivity
17 | QVQLVESGGGLVQAGGSLRLSCAASGSTFTKYTMGWYRQAPGKERELVAAITSSGGSTYYADSVKGRFTISRDNAKNTVYLQMNSLKPEDTAVFYCAAPALYYYYYYGYDYWGQGTQVTVSS | high polyreactivity
18 | QVQLVESGGGLVQAGGSLRLSCAASGSTFTLNAMGWYRQAPGKERELVADISWSSGRTYYADSVKGRFTISRDNAKNTVYLQMNSLKPEDTAVYYCATYDFWNVKFYAYYPEFDYWGQGTQVTVSS | low polyreactivity
19 | QVQLVESGGGLVQAGGSLRLSCAASGSTFTLYAMGGYIQAPGKERELVAAITSDDSTYYADSVKGRFTISRDNAKNTVYLQMNSLKPEDTAVYYCAADVYYGDFEMDYWGQGTQVTVSS | low polyreactivity
20 | QVQLVESGGGLVQAGGSLRLSCAASGSTFTLYAMGWYRKAPGKERELVAAISRSGGRTYYADSVKGRFTISRDNAKNTVYLQMNSLKPEDTAVYYCNAPYKQDYDYWGQGTQVTVSS | high polyreactivity
21 | QVQLVESGGGLVQAGGSLRLSCAASGSTFTLYAMGWYRQAPGKERELVAAISGIGDSTYYADSVKGRFTISRDYAKNNVYLQKNSLKPEDTAVYYCAADGEYRYDWEYESWGQGTHVTVSS | low polyreactivity
22 | QVQLVESGGGLVQAGGSLRLSCAASGSTFTLYAMGWYRQAPGKERELVATITGSGGSTNYADSVKGRFTISRDNAKNTVYLQMNSLKPEDTAVYYCAADYAVYSFTDFNYWGQGTQVTVSS | high polyreactivity

Row | Sequence | polyreactivity (PSR sort gate)
23 | QVQLVESGGGLVQAGGSLRLSCAASGSTFTLYAMGWYRQAPGKERELVATITGSGGSTNYADSVKGRFTISRDNAKNTVYLQMNSLKPEDTAVYYCAADYAVYSFTEFNYWGQGSQVTVSS | high polyreactivity
24 | QVQLVESGGGLVQAGGSLRLSCAASGSTFTNYAMGWYRQAPGKERELVAAINNDRTNYADSVKGRFTISRDNAKNTVYLQMNSLKPEDTAVYYCAAQWRVYGYKISRRNYWGQGTQVTVSS | high polyreactivity
25 | QVQLVESGGGLVQAGGSLRLSCAASGSTFTPYAMGWYRQVPGKERELVASITIGGSTYADSVKGRFTISRDNSKNTVYLQMNSLKPEDTAVYYCNADWNWYPFLYSRMDYWGQGTQVTVSS | low polyreactivity
26 | QVQLVESGGGLVQAGGSLRLSCAASGSTFTQNAMGWYRQAPGKERELVAAIDRRGGSTYYADSVKGRFTISRDNAKNTVYLQMNSLKPEDTAVYYCAASFSYNRPKRFTHNYEYWGQGTQVTVSS | low polyreactivity
27 | QVQLVESGGGLVQAGGSLRLSCAASGSTFTRNPLGWYRQAPGKERELVATISRSGGSTYYADSVKGRFTISRDNAKNTVYLQMNSLKPEDTAVYYCARPYQYYKFYSHDYWGQGTQVTVSS | high polyreactivity
28 | QVQLVESGGGLVQAGGSLRLSCAASGSTFTRYAMGWYRQAPGKERELVAAITRSGGGTYYADSVKGRFTISRDNAKNTVYLQMNSLKPEDTAVYYCAKDIVFYGAPGYGYWGQGTQVTVSS | high polyreactivity
29 | QVQLVESGGGLVQAGGSLRLSCAASGSTFTRYAMGWYRQAPGTERECVAGITSIGGRTYYADSVKGRFTISRDNAKNTVYLQMNSLKPEDTAVYYCAKRWGRYYYPYDYWGQGTQVTVSS | high polyreactivity
30 | QVQLVESGGGLVQAGGSLRLSCAASGSTFTSYTMGWYRQAPGKERELVAAISRGGGRTYYADSVKARFTISRDNAKNTVYLQMYRLNPEDTAVYYCNKVLRGDRAGPGYDHWGLGTQVTVSS | high polyreactivity
31 | QVQLVESGGGLVQAGGSLRLSCAASGSTFTTYAMGWYRQAPGKERELVAVITDSGGTYYADSVQGRFTISRDNAKNTVYLQMNSLKPEDTAVYYCNRVFPPTDYEFDSWGQGTQVTVSS | low polyreactivity
32 | QVQLVESGGGLVQAGGSLRLSCAASGSTFTTYGMGWYRQAPGKERELVAAISLSSGRTYYADSVKGRFTISRDNAKNTVYLQMNSLKPEDTAVYYCNKRSQKPSQYKPYGYWGQGTQVTVSS | high polyreactivity
33 | QVQLVESGGGLVQAGGSLRLSCAASGSTFTWNAMGWYRQAPGKERELVAAISGDGGSTYYADSVKGRFTISRDNAKNTVYLQMNSLKPEDTAVYYCAASSAHIYSYRYNYWGQGTQVTVSS | low polyreactivity
34 | QVQLVESGGGLVQAGGSLRLSCAASGSTFTYNAMGWYRQAPGKERELVASISSGTTTYYADSVKGRFTISRDNAKNTVYFQMHSLKPEDTAVYYCAVDSWSRVQGWLAHNYDYWGQGTQVTVSS | low polyreactivity
35 | QVQLVESGGGLVQAGGSLRLSCAASGSTFTYYAMGWSRQAPGKERELVAVINKSGGRTNYADSVKGRFTISRDNPKNTVYLQMNSLKPEDTAVYYCNAYYTSFYTGDDYWGQGTQVTVSS | high polyreactivity
36 | QVQLVESGGGLVQAGGSLRLSCAASGSTFTYYAMGWSRQEPGIEREFVAAISRRGGSTYYADSVKGRFTISRDNAMNTVYLQMKSLKQEDTPVYYCNVVIYSYGINGRYDYWGQGTQDTVSS | high polyreactivity
37 | QVQLVESGGGLVQAGGSLRLSCAASGSTFTYYAMGWYRQAPGKERELVAAITSRGGITYYADSVKGRFTISRDNAKNTVYLQMHSLKPEDTAVYYCNAYSQRYGYYYWGQGTQVTVSS | high polyreactivity
38 | QVQLVESGGGLVQAGGSLRLSCAASGSTFTYYTMGWSRQAPGKERELVAASSRTTGSTYYADSVKGRFTISRDNAKNTVYLQMNSLIPEDTAVYYCAAQSYKILLYFIGTAGDGYWGQGTQVTVSS | low polyreactivity
39 | QVQLVESGGGLVQAGGSLRLSCAASGSTFVAYPMGWYRQAPGKERELVATISSGGNTKYADSVKGRFTISRDNAKNTVYLQMNSVKPEDTAVYYCNAGRYRYRYRSYPYDYWGQGTQVTVSS | high polyreactivity
40 | QVQLVESGGGLVQAGGSLRLSCAASGSTFVDNAMGWYRQAPGKERELVAAISRGGSTHYADSVKGRFTISRDNAKNTVYLQMNSLKPEDTAVYYCNKDTKRLLWFYKYYYWGQGTQVTVSS | high polyreactivity
41 | QVQLVESGGGLVQAGGSLRLSCAASGSTFVDYAMGRYRQAPGKERELVAAITRSGSSTYYADSVKGRFTISRDIAKNTVYLQMNSLKPEDTAVYYCAAVRYRGLQVKFYYWGQGTQVTVSS | high polyreactivity
42 | QVQLVESGGGLVQAGGSLRLSCAASGSTFVDYAMGWYRQAPGKERELVAAISFSDGSTYYADSVKGRFTISRDNAKNTVYLQMNSLKPEDTAVYYCAKDAYWGYRWYTYDYWGQGTQVTVSS | low polyreactivity
43 | QVQLVESGGGLVQAGGSLRLSCAASGSTFVENAMGWYRQAPGKEREVVAAISSSGDSTFYADSVKGRFTISRDNAKNTVYLQMKSLKPEDTAVYYCAADRRINYDGLDMDYWGQGTQVTVSS | low polyreactivity

Source: the nanobody polyreactivity screen of Harvey et al. (2022)
